From paper PMC12455010

How the values were obtained:
[1] = automated whole-cell patch clamp, inactivation width at +80 mV
[2] = cell surface biotinylation, western blot; details: glycan lost
[3] = glycan changed form, control: untreated
[4] = glycan changed form, control: low glucose

B1: rat Kv3.4 (rKv3.4): tunicamycin (protein)
parent chain: MISSVCVSSYRGRKSGNKPPSKTCLKEEMAKGEASEKIIINVGGTRHETYRSTLRTLPGTRLAWLADPDGGGRPESDGGGAGSSGSSGGGGGCEFFFDRHPGVFAYVLNYYRTGKLHCPADVCGPLFEEELTFWGIDETDVEPCCWMTYRQHRDAEEALDIFESPDGGGGGAGPGDEAGDDERELALQRLGPHEGGSGPGAGSGGCRGWQPRMWALFEDPYSSRAARVVAFASLFFILVSITTFCLETHEAFNIDRNVTEIHRVGNITSVRFRREVETEPILTYIEGVCVMWFTLEFLVRIVCCPDTLDFVKNLLNIIDFVAILPFYLEVGLSGLSSKAARDVLGFLRVVRFVRILRIFKLTRHFVGLRVLGHTLRASTNEFLLLIIFLALGVLIFATMIYYAERIGARPSDPRGNDHTDFKNIPIGFWWAVVTMTTLGYGDMYPKTWSGMLVGALCALAGVLTIAMPVPVIVNNFGMYYSLAMAKQKLPKKRKKHVPRPPQLESPIYCKSEETSPRDSTYSDTSPPAREEGMVERKRADSKQNGDANAVLSDEEGAGLTQPLASAPTPEERRALRRSGTRDRNKKAAACFLLSAGDYACADGSVQKEGSVEPKACVPVSHTCAL
- other: channel inactivation delay and its heterogeneity ([1]; glycan lost, control: untreated): decreases
- localisation_or_trafficking ([2]; control: untreated): no change

B2: rat Kv3.4 (rKv3.4): swainsonine (Sw) (protein)
parent chain: MISSVCVSSYRGRKSGNKPPSKTCLKEEMAKGEASEKIIINVGGTRHETYRSTLRTLPGTRLAWLADPDGGGRPESDGGGAGSSGSSGGGGGCEFFFDRHPGVFAYVLNYYRTGKLHCPADVCGPLFEEELTFWGIDETDVEPCCWMTYRQHRDAEEALDIFESPDGGGGGAGPGDEAGDDERELALQRLGPHEGGSGPGAGSGGCRGWQPRMWALFEDPYSSRAARVVAFASLFFILVSITTFCLETHEAFNIDRNVTEIHRVGNITSVRFRREVETEPILTYIEGVCVMWFTLEFLVRIVCCPDTLDFVKNLLNIIDFVAILPFYLEVGLSGLSSKAARDVLGFLRVVRFVRILRIFKLTRHFVGLRVLGHTLRASTNEFLLLIIFLALGVLIFATMIYYAERIGARPSDPRGNDHTDFKNIPIGFWWAVVTMTTLGYGDMYPKTWSGMLVGALCALAGVLTIAMPVPVIVNNFGMYYSLAMAKQKLPKKRKKHVPRPPQLESPIYCKSEETSPRDSTYSDTSPPAREEGMVERKRADSKQNGDANAVLSDEEGAGLTQPLASAPTPEERRALRRSGTRDRNKKAAACFLLSAGDYACADGSVQKEGSVEPKACVPVSHTCAL
- other: channel inactivation delay and its heterogeneity [1, 3]: decreases

B3: rat Kv3.4 (rKv3.4): mannose recovery (protein)
parent chain: MISSVCVSSYRGRKSGNKPPSKTCLKEEMAKGEASEKIIINVGGTRHETYRSTLRTLPGTRLAWLADPDGGGRPESDGGGAGSSGSSGGGGGCEFFFDRHPGVFAYVLNYYRTGKLHCPADVCGPLFEEELTFWGIDETDVEPCCWMTYRQHRDAEEALDIFESPDGGGGGAGPGDEAGDDERELALQRLGPHEGGSGPGAGSGGCRGWQPRMWALFEDPYSSRAARVVAFASLFFILVSITTFCLETHEAFNIDRNVTEIHRVGNITSVRFRREVETEPILTYIEGVCVMWFTLEFLVRIVCCPDTLDFVKNLLNIIDFVAILPFYLEVGLSGLSSKAARDVLGFLRVVRFVRILRIFKLTRHFVGLRVLGHTLRASTNEFLLLIIFLALGVLIFATMIYYAERIGARPSDPRGNDHTDFKNIPIGFWWAVVTMTTLGYGDMYPKTWSGMLVGALCALAGVLTIAMPVPVIVNNFGMYYSLAMAKQKLPKKRKKHVPRPPQLESPIYCKSEETSPRDSTYSDTSPPAREEGMVERKRADSKQNGDANAVLSDEEGAGLTQPLASAPTPEERRALRRSGTRDRNKKAAACFLLSAGDYACADGSVQKEGSVEPKACVPVSHTCAL
- other: channel inactivation delay and its heterogeneity [1, 4]: increases

B4: rat Kv3.4 (rKv3.4): cytochalasin B (protein)
parent chain: MISSVCVSSYRGRKSGNKPPSKTCLKEEMAKGEASEKIIINVGGTRHETYRSTLRTLPGTRLAWLADPDGGGRPESDGGGAGSSGSSGGGGGCEFFFDRHPGVFAYVLNYYRTGKLHCPADVCGPLFEEELTFWGIDETDVEPCCWMTYRQHRDAEEALDIFESPDGGGGGAGPGDEAGDDERELALQRLGPHEGGSGPGAGSGGCRGWQPRMWALFEDPYSSRAARVVAFASLFFILVSITTFCLETHEAFNIDRNVTEIHRVGNITSVRFRREVETEPILTYIEGVCVMWFTLEFLVRIVCCPDTLDFVKNLLNIIDFVAILPFYLEVGLSGLSSKAARDVLGFLRVVRFVRILRIFKLTRHFVGLRVLGHTLRASTNEFLLLIIFLALGVLIFATMIYYAERIGARPSDPRGNDHTDFKNIPIGFWWAVVTMTTLGYGDMYPKTWSGMLVGALCALAGVLTIAMPVPVIVNNFGMYYSLAMAKQKLPKKRKKHVPRPPQLESPIYCKSEETSPRDSTYSDTSPPAREEGMVERKRADSKQNGDANAVLSDEEGAGLTQPLASAPTPEERRALRRSGTRDRNKKAAACFLLSAGDYACADGSVQKEGSVEPKACVPVSHTCAL
- other: channel inactivation delay and its heterogeneity [1, 3]: decreases

B5: rat Kv3.4 (rKv3.4): siGlut1 (protein)
parent chain: MISSVCVSSYRGRKSGNKPPSKTCLKEEMAKGEASEKIIINVGGTRHETYRSTLRTLPGTRLAWLADPDGGGRPESDGGGAGSSGSSGGGGGCEFFFDRHPGVFAYVLNYYRTGKLHCPADVCGPLFEEELTFWGIDETDVEPCCWMTYRQHRDAEEALDIFESPDGGGGGAGPGDEAGDDERELALQRLGPHEGGSGPGAGSGGCRGWQPRMWALFEDPYSSRAARVVAFASLFFILVSITTFCLETHEAFNIDRNVTEIHRVGNITSVRFRREVETEPILTYIEGVCVMWFTLEFLVRIVCCPDTLDFVKNLLNIIDFVAILPFYLEVGLSGLSSKAARDVLGFLRVVRFVRILRIFKLTRHFVGLRVLGHTLRASTNEFLLLIIFLALGVLIFATMIYYAERIGARPSDPRGNDHTDFKNIPIGFWWAVVTMTTLGYGDMYPKTWSGMLVGALCALAGVLTIAMPVPVIVNNFGMYYSLAMAKQKLPKKRKKHVPRPPQLESPIYCKSEETSPRDSTYSDTSPPAREEGMVERKRADSKQNGDANAVLSDEEGAGLTQPLASAPTPEERRALRRSGTRDRNKKAAACFLLSAGDYACADGSVQKEGSVEPKACVPVSHTCAL
- other: channel inactivation delay and its heterogeneity ([1]; glycan changed form, control: siNeg): decreases

B6: rat Kv3.4 (rKv3.4): glucose recovery (protein)
parent chain: MISSVCVSSYRGRKSGNKPPSKTCLKEEMAKGEASEKIIINVGGTRHETYRSTLRTLPGTRLAWLADPDGGGRPESDGGGAGSSGSSGGGGGCEFFFDRHPGVFAYVLNYYRTGKLHCPADVCGPLFEEELTFWGIDETDVEPCCWMTYRQHRDAEEALDIFESPDGGGGGAGPGDEAGDDERELALQRLGPHEGGSGPGAGSGGCRGWQPRMWALFEDPYSSRAARVVAFASLFFILVSITTFCLETHEAFNIDRNVTEIHRVGNITSVRFRREVETEPILTYIEGVCVMWFTLEFLVRIVCCPDTLDFVKNLLNIIDFVAILPFYLEVGLSGLSSKAARDVLGFLRVVRFVRILRIFKLTRHFVGLRVLGHTLRASTNEFLLLIIFLALGVLIFATMIYYAERIGARPSDPRGNDHTDFKNIPIGFWWAVVTMTTLGYGDMYPKTWSGMLVGALCALAGVLTIAMPVPVIVNNFGMYYSLAMAKQKLPKKRKKHVPRPPQLESPIYCKSEETSPRDSTYSDTSPPAREEGMVERKRADSKQNGDANAVLSDEEGAGLTQPLASAPTPEERRALRRSGTRDRNKKAAACFLLSAGDYACADGSVQKEGSVEPKACVPVSHTCAL
- other: channel inactivation delay and its heterogeneity [1, 4]: increases

B7: rat Kv3.4 (rKv3.4): N257/266Q (protein)
parent chain: MISSVCVSSYRGRKSGNKPPSKTCLKEEMAKGEASEKIIINVGGTRHETYRSTLRTLPGTRLAWLADPDGGGRPESDGGGAGSSGSSGGGGGCEFFFDRHPGVFAYVLNYYRTGKLHCPADVCGPLFEEELTFWGIDETDVEPCCWMTYRQHRDAEEALDIFESPDGGGGGAGPGDEAGDDERELALQRLGPHEGGSGPGAGSGGCRGWQPRMWALFEDPYSSRAARVVAFASLFFILVSITTFCLETHEAFNIDRNVTEIHRVGNITSVRFRREVETEPILTYIEGVCVMWFTLEFLVRIVCCPDTLDFVKNLLNIIDFVAILPFYLEVGLSGLSSKAARDVLGFLRVVRFVRILRIFKLTRHFVGLRVLGHTLRASTNEFLLLIIFLALGVLIFATMIYYAERIGARPSDPRGNDHTDFKNIPIGFWWAVVTMTTLGYGDMYPKTWSGMLVGALCALAGVLTIAMPVPVIVNNFGMYYSLAMAKQKLPKKRKKHVPRPPQLESPIYCKSEETSPRDSTYSDTSPPAREEGMVERKRADSKQNGDANAVLSDEEGAGLTQPLASAPTPEERRALRRSGTRDRNKKAAACFLLSAGDYACADGSVQKEGSVEPKACVPVSHTCAL
- localisation_or_trafficking ([2]; control: wild type): no change

B8: rat Kv3.4 (rKv3.4): kifunensine (Kf) (protein)
parent chain: MISSVCVSSYRGRKSGNKPPSKTCLKEEMAKGEASEKIIINVGGTRHETYRSTLRTLPGTRLAWLADPDGGGRPESDGGGAGSSGSSGGGGGCEFFFDRHPGVFAYVLNYYRTGKLHCPADVCGPLFEEELTFWGIDETDVEPCCWMTYRQHRDAEEALDIFESPDGGGGGAGPGDEAGDDERELALQRLGPHEGGSGPGAGSGGCRGWQPRMWALFEDPYSSRAARVVAFASLFFILVSITTFCLETHEAFNIDRNVTEIHRVGNITSVRFRREVETEPILTYIEGVCVMWFTLEFLVRIVCCPDTLDFVKNLLNIIDFVAILPFYLEVGLSGLSSKAARDVLGFLRVVRFVRILRIFKLTRHFVGLRVLGHTLRASTNEFLLLIIFLALGVLIFATMIYYAERIGARPSDPRGNDHTDFKNIPIGFWWAVVTMTTLGYGDMYPKTWSGMLVGALCALAGVLTIAMPVPVIVNNFGMYYSLAMAKQKLPKKRKKHVPRPPQLESPIYCKSEETSPRDSTYSDTSPPAREEGMVERKRADSKQNGDANAVLSDEEGAGLTQPLASAPTPEERRALRRSGTRDRNKKAAACFLLSAGDYACADGSVQKEGSVEPKACVPVSHTCAL
- other: channel inactivation delay and its heterogeneity [1, 3]: decreases

B9: rat Kv3.4 (rKv3.4): low-glucose medium (protein)
parent chain: MISSVCVSSYRGRKSGNKPPSKTCLKEEMAKGEASEKIIINVGGTRHETYRSTLRTLPGTRLAWLADPDGGGRPESDGGGAGSSGSSGGGGGCEFFFDRHPGVFAYVLNYYRTGKLHCPADVCGPLFEEELTFWGIDETDVEPCCWMTYRQHRDAEEALDIFESPDGGGGGAGPGDEAGDDERELALQRLGPHEGGSGPGAGSGGCRGWQPRMWALFEDPYSSRAARVVAFASLFFILVSITTFCLETHEAFNIDRNVTEIHRVGNITSVRFRREVETEPILTYIEGVCVMWFTLEFLVRIVCCPDTLDFVKNLLNIIDFVAILPFYLEVGLSGLSSKAARDVLGFLRVVRFVRILRIFKLTRHFVGLRVLGHTLRASTNEFLLLIIFLALGVLIFATMIYYAERIGARPSDPRGNDHTDFKNIPIGFWWAVVTMTTLGYGDMYPKTWSGMLVGALCALAGVLTIAMPVPVIVNNFGMYYSLAMAKQKLPKKRKKHVPRPPQLESPIYCKSEETSPRDSTYSDTSPPAREEGMVERKRADSKQNGDANAVLSDEEGAGLTQPLASAPTPEERRALRRSGTRDRNKKAAACFLLSAGDYACADGSVQKEGSVEPKACVPVSHTCAL
- other: channel inactivation delay and its heterogeneity [1, 3]: decreases
